Laboratory results as given in US20070231258A1, “Peptide conjugates” (KARYON CTT LTD., priority 2006, published 2007).
*1 amine or outer side, *2 acyl side, *3 side chain or, on linkers, in order; H or OH if unused. Where a SMILES comes first, the peptide text is derived from it. Bridges are numbered along the chain shown (N, C = ends). Primed or numbered codes have the meaning given here. [ ]: non-standard residue; d: D form. The star is where a group is joined. X1 = O=C(O)CN(CCN(CC(=O)O)CC(Cc1ccc(NC(=S)NCCOCCOCCN*)cc1)N(CC(=O)O)CC(=O)O)CC(=O)O; DTPA′ = diethylenetriaminepentaacetic acid chelator; NHCH2CH2SCH2CO = O=C(CSCCN[*:1])[*:2]; NH(CH2CH2O)2CH2CH2NH2 = NCCOCCOCCN*; AEEEA = NCCOCCOCCOCC(=O)O; PEG3 = NCCOCCOCCOCCC(=O)O; AABz = not defined here

Key:
[1] = Plasma stability of the peptide conjugates in human blood plasma/PBS (HPLC)
Procedure: (§1) The peptide conjugates (10-20 μg) was added to a human blood plasma/PBS mixture (1:1) in a total volume of 500 μl and incubated at 37° C. After incubation 100 μl per time point (0 and 240 min) was transferred to YM-10 (Microcon, cut-off 10000 MW; manufacturer Millipore), centrifuged (10000 RPM) 15 min at 4° C. 50 μl of the spin-through material was analyzed by HPLC.
(§2) HPLC: Waters 626 pump, 600S controller, Waters 996 photo diode array detector. Column: C18, 300 Å, 5 μm, 2.1×250 mm. Eluents for the non-conjugated functional peptides: A 0.1% TFA, B 0.075% TFA/100% ACN. Gradient: 0-100% B in 60 min. Flow: 180 μl/min. Loop: 50 μl.
(§3) Eluents for the functional peptide conjugates: Eluent A: 0.05 M ammonium acetate; B: 50% 0.05 M ammonium acetate/50% ACN. Gradient: 0-100% B in 60 min. Flow: 180 μl/min. Loop: 50 μl. One-minute fractions were collected and analyzed with MALDI-TOF.
(§4) Peptide mass: Bruker Ultraflex MALDI-TOF, N2-laser 337 nm, matrix saturated solution of α-cyano-4-hydroxycinnamic acid, reflector mode.

[2] = Plasma protein binding and plasma stability assay in vitro (ultrafiltration, LC/MS/MS); assay type: in vitro ADME, mouse
Procedure: The plasma protein binding and plasma stability of the targeting agents MJ143 (lactam-bridged; described in Example 8) and MJ142 (cystine-bridged; described below) comprising functional peptide LRSGRG was compared in mouse plasma in vitro.
The study compounds were spiked to mouse plasma to give 10 μM concentration. The samples of 1.5 ml were incubated at 37° C. and 200 μl aliquots were taken after 0 min, 30 min, 60 min, 2 h and 4 h. Incubations were made in duplicate. The aliquot samples were ultrafiltrated for 30 min (Millipore YM-10 filters, 10 kDa cut-off, 12 000 rpm) and the supernatants were analysed using LC/MS/MS. The sample concentrations were quantified against calibration curves created using standard samples spiked to ultrafiltrated mouse plasma to concentrations 0.1, 0.5, 1, 5 and 10 μM.
A Finnigan Surveyor chromatographic system (Thermo-Finnigan, San Jose, Calif., USA) with autosampler, vacuum degasser and column oven was used in the analysis. The analytical column was a Waters SymmetryShield RP18, 2.1×50 mm, 3.5 μm together with Phenomenex Luna C18 precolumn, 4.0×2.0 mm, 3.0 μm (Phenomenex, Torrance, Calif., USA). The eluents were (A) 0.02% acetic acid in water (pH 3.6) and (B) methanol, with flow rate of 300 μl/min. The elution gradient was from 5% B to 90% B in five minutes, followed by column equilibration. The column oven temperature was 30° C. LC/MS/MS data was acquired with a Finnigan TSQ Discovery MAX triple quadrupole mass spectrometer equipped with an Ion MAX electrospray ionization source. Before LC/MS/MS runs, the instrument was tuned with a 5 μg/ml solution of study compounds to obtain the maximum sensitivity with multiple reaction mode. The collision gas was argon at 1.5 mTorr.

[3] = in vitro; settings: human, plasma
Procedure: as §1, §2, §3, §4

[4] = tested on: C8161 tumors; experiment: Targeting peptide biodistribution (Eu content of tissues) in C8161 tumor-bearing mice; assay type: in vivo, athymic nude mice; settings: 4 nmol i.v. tail vein, 20 min circulation; for accumulation of europium in tumor compared to normal tissue: kidney high due to excretion; for ratio of tumor Eu-content to muscle Eu-content: perfused
Procedure: It is shown that the tested conjugates according to the present invention selectively target to primary tumors in vivo but not to normal tissues or organs.
For production of experimental tumors 1×10^6 cells of C8161 line (described in Example 9) were injected subcutaneously into the flank of athymic nude mice strain (Harlan Laboratories). Tumors were harvested when they had reached a weight of about 0.1 g. Tumor-bearing mice were anesthetized by 0.02 ml/g body weight of Avertin [10 g 2,2,2-tribromoethanol (Fluka) in 10 ml 2-methyl-2-butanol (Sigma Aldrich)] intraperitoneally (i.p.).
To determine the biodistribution pattern of the conjugates, 4 nmol of MJ015 or MJ053 was injected into the tail vein of athymic nude mice in a volume of 100 μl in physiological saline solution (Baxter). The conjugate was allowed to circulate for 20 min. Mice were then perfused through the heart with 60 ml of physiological saline. Organs and tissues, including tumors were collected and weighed.
For determination of the Eu content of the tumors and control organs, 0.1-0.2 g of tissue was transferred into lysis buffer (20 mM Tris-HCl, 150 mM NaCl, 1% Nonident P40, pH 7.5) and homogenized. Eu-content was analyzed from tissue lysates prepared into the DELFIA Inducer solution (Perkin Elmer Wallac Ltd., Turku, Finland) and transferred to DELFIA Micro titration strip plates (Perkin Elmer Wallac Ltd, Turku, Finland). Time-resolved fluorescence was measured after incubation with a Wallac 1420 VICTOR3™ V plate reader using a D615 nm filter.

In the case of “a*LRSGRGE*-Teg-AEM-AABz-DTPA-Gd (LRSGRGE-{AEEEA-NHCH2CH2SCH2CO-AABz-DTPA′}; lactam N-7; not fully specified (N-terminus); reading uncertain; also: DTPA chelate of Gd) [MJ059]”, the “Observed compound peak heights prior to incubation” value ([1]; 0 h, human blood plasma/PBS 1:1, 37° C.) is reported as 100%, the “Observed compound peak heights after four hours” value ([1]; 4 h, human blood plasma/PBS 1:1, 37° C.) is reported as 100% and the “degradation during incubation in plasma” value ([1]; 4 h incubation in human plasma) is reported as “no degradation”.

In the case of “a*LRSGRGE*-Tegc-AEM-AABz-DTPA-In (LRSGRGE-{PEG3-NHCH2CH2SCH2CO-AABz-DTPA′}; lactam N-7; not fully specified (N-terminus); reading uncertain; also: In chelated by DTPA) [MJ143]”, the “Peptide-DTPA[In] relative remaining peak areas/unbound fraction (%)” value ([2]; 0 h, mouse plasma, 10 μM, 37° C., ultrafiltrate) is reported as 71%, the “Peptide-DTPA[In] relative remaining peak areas/unbound fraction (%)” value ([2]; 30 min, mouse plasma, 10 μM, 37° C., ultrafiltrate) is reported as 71% and the “Peptide-DTPA[In] relative remaining peak areas/unbound fraction (%)” value ([2]; 1 h, mouse plasma, 10 μM, 37° C., ultrafiltrate) is reported as 70%. For the same compound, the “Peptide-DTPA[In] relative remaining peak areas/unbound fraction (%)” value ([2]; 2 h, mouse plasma, 10 μM, 37° C., ultrafiltrate) was 66%, the “Peptide-DTPA[In] relative remaining peak areas/unbound fraction (%)” value ([2]; 4 h, mouse plasma, 10 μM, 37° C., ultrafiltrate) was 61% and the “plasma protein binding, lactam-bridged vs cystine-bridged version” value ([2]; mouse plasma in vitro) was “considerably lower plasma protein binding”. For the same compound, the “plasma stability, lactam-bridged vs cystine-bridged version” value ([2]; mouse plasma in vitro) was “greatly more stable”.

For `CC(=O)N[C@H]1CSSC[C@@H](C(=O)NCC(=O)N[C@@H](C)C(=O)NCCOCCOCCNC(=S)Nc2ccc(CC(CN(CCN(CC(=O)O)CC(=O)O)CC(=O)O)N(CC(=O)O)CC(=O)O)cc2)NC(=O)CNC(=O)[C@H](CCCNC(=N)N)NC(=O)CNC(=O)[C@H](CO)NC(=O)[C@H](CCCNC(=N)N)NC(=O)[C@H](CC(C)C)NC1=O` (stereo partly shown) [MJ142, reference compound] (Ac-CLRSGRGCGA-X1; disulfide 1-8), the fraction unbound at 0 h, 10 μM ([2]; 0 h, mouse plasma, 10 μM, 37° C., ultrafiltrate, read-out: Peptide-DTPA[In] relative remaining peak areas/unbound fraction (%)) was 0.48, the fraction unbound at 30 min, 10 μM ([2]; 30 min, mouse plasma, 10 μM, 37° C., ultrafiltrate, read-out: Peptide-DTPA[In] relative remaining peak areas/unbound fraction (%)) was 0.44 and the fraction unbound at 1 h, 10 μM ([2]; 1 h, mouse plasma, 10 μM, 37° C., ultrafiltrate, read-out: Peptide-DTPA[In] relative remaining peak areas/unbound fraction (%)) was 0.35. For the same compound, the fraction unbound at 2 h, 10 μM ([2]; 2 h, mouse plasma, 10 μM, 37° C., ultrafiltrate, read-out: Peptide-DTPA[In] relative remaining peak areas/unbound fraction (%)) was 0.19, the fraction unbound at 4 h, 10 μM ([2]; 4 h, mouse plasma, 10 μM, 37° C., ultrafiltrate, read-out: Peptide-DTPA[In] relative remaining peak areas/unbound fraction (%)) was 0.06 and the fraction unbound at 0 min, 10 μM ([2]; mouse plasma, 0 min incubation, during the 30 min ultrafiltration period, read-out: disappearance due to protein binding (converted)) was about 0.48.

`CC(C)C[C@@H]1NC(=O)[C@@H](C)NC(=O)CC[C@@H](C(=O)NCCOCCOCCN)NC(=O)CNC(=O)[C@H](CCCNC(=N)N)NC(=O)CNC(=O)[C@H](CO)NC(=O)[C@H](CCCNC(=N)N)NC1=O` [KK51, D-Ala*-Leu-Arg-SerGly-Arg-Gly-Glu*-NH(CH2CH2O)2CH2CH2NH2] ([dA]LRSGRGE-{NH(CH2CH2O)2CH2CH2NH2}; lactam N-8) gave a remaining at 4 h [3] of 92%.

`CC(C)C[C@@H]1NC(=O)[C@@H](NC(=O)CN)CSSC[C@@H](C(=O)NCC(=O)NCCOCCOCCN)NC(=O)CNC(=O)[C@H](CCCNC(=N)N)NC(=O)CNC(=O)[C@H](CO)NC(=O)[C@H](CCCNC(=N)N)NC1=O` [KK12, Gly-Cys*-Leu-Arg-SerGly-Arg-Gly-Cys*-Gly-NH(CH2CH2O)2CH2CH2NH2, reference compound] (H-GCLRSGRGCG-{NH(CH2CH2O)2CH2CH2NH2}; disulfide 2-9; N-terminus assumed) showed a remaining at 4 h [3] of 25%.

For “a*LRSGRGE*-Teg-AEM-AABz-DTPA-Eu (LRSGRGE-{AEEEA-NHCH2CH2SCH2CO-AABz-DTPA′}; lactam N-7; not fully specified (N-terminus); reading uncertain; also: DTPA chelate of Eu) [MJ015]”, the “accumulation of europium in tumor compared to normal tissue” value [4] was “accumulated strongly and selectively in C8161 tumors” and the “ratio of tumor Eu-content to muscle Eu-content” value [4] was 7.1.

With a*IREE*-Tegc-AEM-AABz-DTPA-Eu [MJ053] the “accumulation of europium in tumor compared to normal tissue” value [4] was “accumulated strongly and selectively in C8161 tumors” and the “ratio of tumor Eu-content to muscle Eu-content” value [4] was 3.9.
